Reference: the supplement of paper PMC9170038

test system: MS2 coat protein; assay: apparent KD of MS2 coat protein; higher = weaker reporter binding; conditions: Eterna round: R107; input ligand: theophylline 20 uM
Protocol: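 RNA-MaP round R107: designed RNA switches with theophylline, tryptophan, arginine or FMN aptamers are transcribed on-chip within common flanks. They are titrated with SNAP-549-labelled MS2 coat protein in RNA-MaP buffer (100 mM Tris pH 7.5, 80 mM KCl, 4 mM MgCl2), without ligand or with the indicated ligand. Median apparent KD per design.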

Sequence | apparent KD of MS2 coat protein [nM]
AGCCACUCGAGUGAUCCUCACGAGUGGCUACGAGGACCGGUACGGCCGCCACUCGAAUUAACAUGAGGAUCACCCAUGUAAUCAU [Brourdmod04] | 259
UCGCCCGGGUCGGCCGCCACUGCGGUGAUGUGACAUGAGGAUCACCCAUGUUGUCAUGUGGCACAUAGGACCGGGACCCGGGCGA [Exclusion - Tryptophan B Attempt #4 (HarryS)] | 45.3
CUUGUGGGCGGAAGGAGCGCGAUUACAUAACAUGAGGAUCACCCAUGUAAGAAAUUAUUCAUGCAGGUAGGUCGCCGUUCGUGGG [Same State Arginine B GF9] | 30.9
CGGUUUGUGAUGGAUACCAGCAGAGAAAAUGUUUAUCCUGACAUGAGGAUCACCCAUGUGUGCCCUUGGCAGCUGUUGUGGGCUG [8.X] | 85.7
CGUAAACAUGAGGAUCACCCAUGUGAUGAUACCAGCACGAUUAACUGCCCUUGGCAGCAUGUAUUGUACGACUUAUUGCCCAUCG [theeternabot_sameState_MS2_Theo_A_15] | 23.3
GACAUGAGGAUCACCCAUGUUGACUAUGAAGGAGCGUCGGAAAUGACAGGUAGGUCGCAUAGUCGACCUUGUAUUUUGUGUGUUU [EAA #9] | 17.4
UGCAUCAUAAUCAUGUUGGUGCUAGGUGAUACCAGCAUCGAAAGAUGCCCUUGGCAGCACCAACAUGAGGAUCACCCAUGUAAUA [(MT)''-(M)'-(T')-(Theo)-(Ms2)_Design1/22_2] | 165
CUUGUGCUGACGGCCGCCACUUUAUGGGAGUCCUGUUCUGAUUGAUACAUGAGGAUCACCCAUGUAAGGACCGGGUCGUACCAUA [theeternabot_exclusion_MS2_Trp_B_22] | 27.4
UUCAGCUAGUCGGCCGCCACUACUUGAGGAUCACCCAAGUAAUCCUAACACUGCUUCGGCAGUGGUAGGACCGGGACUAGCUGAG | 12
UUAAUCAUGGAUGAAAACAUUUAUGCAGAAGGAGCGUGAUAAAACACAGGUAGGUCGCUGAAGGGAACAUGAGGAUCACCCAUGU [AstrosSSArgA#17] | 74.5
CCUAUGCAGUCGGCCGCCACUGAUAAAAUUAUUUUUACCUCAGAAACAUGAGGAUCACCCAUGUACAGGACCGGGACUGUAUAGG [Ex Tryptophan B 17] | 20.1
AGGCAGUAGGUGAUCCACUGCCAAGGUGAUACCAGCAUCGAAAGAUGCCCUUGGCAGCACCAACAUGAGGAUCACCCAUGUAAUA [(MT)''-(M)'-(T')-(Theo)-(Ms2)_Design1/22_9] | 186
GGAGUAGAUGCGGCCGCCACUUUCUCAAGACACUACAUGAGGAUCACCCAUGUCCAUUCUACACUAAGGACCGGGCAUCCCAUGG [Alaa] | 182
CUCGAGUUAUGAGAUACCAGACUAUAGUUUACAUGAGGAUCACCCAUGUUAUGGGUGGUAGUCCCUUGGCAGCUCAUAUGUUUAA [#06 Exclusion-TheophyllineB] | 274
UUCUUUAAGUCGGCCGCCACUGAAACAUGAGGAUCACCCAUGUAUAUUUGUGUAAAGGUGGAUUACAGGACCGGGACUAUAGUAA [JR_Nu23_ExcTryptoB_Sub024] | 13.6

same assay, conditions: Eterna round: R107; input ligand: theophylline 2 mM

Sequence | apparent KD of MS2 coat protein [nM]
AAAAGAGGUGGAAGGAGCGGGAGACAUGAGGAUCACCCAUGUGAAGUGACGAAAGGAUCAGCCCAGGUAGGUCGCCAUGUCGAAA [yuiiumullin] | 25.9
CCGGCCGCAUGAAGGAGCGCACAGCGCUCGCACAUGAGGAUCACCCAUGUAAAUGGGUGCGUGCAGGUAGGUCGCAUGCAGGCAA [Lesobete] | 671
GGAUUACGAAAGUAGUCCUCAAGUUCGAGACGAGGACCGGUACGGCCGCCACUCGAACAUGAGGAUCACCCAUGUAGCGAAAGCU [Tryptophan A 22] | 425
ACAUGAGGAUCACCCAUGUAAUUGCCGGAAGGAGCGUCAUUAAGGACAGGUAGGUCGCUGGUAGGGUCGUCGGUUACGGCGGCCA [SSArg A #10] | 13
GGGUACAUCGCGGCCGCCACUCAUGUAAAUGCAUGAGGAUCACCCAUGUCGAUGGAGACAUCGGAGAGGACCGGGUGAUGUACCG | 313
UGUUAUUUCCGAAGGAGCGGGAUACAUGAGGAUCACCCAUGUACAUGAGGAUCAACAUGAACCCAGGUAGGUCGCGGAUUUUGUC [Exclusion Arginine B 3] | 379
CGCCACAUGAGGAUCACCCAUGUAAUGGCGCGAGGACCGGUACGGCCGCCACUCGCCUGGCAGUGAGCGCAUGCGGCCUGGGUAU [Exclusion Tryp A GF9] | 14.4
ACAUGAGGAUCACCCAUGUAGCCUAGGGAAGGAGCGUCGUAAGAGACAGGUAGGUCGCCCGCAUGUGGAUCACCCAUGUCGAGGG [SSArg A #11] | 43.6
UGACAUGAGGAUCACCCAUGUUUAGAUGAACGAGGACCGGUACGGCCGCCACUCGAUAAGUGGAAAGAGCGAGGGAUCGCAUGCU [Same State Trp A GF5] | 12.9
UCGCUCUGGGUGAAUCCCAGAGAUGUGGAAGGAGCGGACGAAAGUCCAGGUAGGUCGCCAUCGAACAUGAGGAUCACCCAUGUAC [Same State - Arginine A (Freestyle 26)] | 75.6
AGCCACUCGAGUGAUCCUCACGAGUGGCUACGAGGACCGGUACGGCCGCCACUCGAAUUAACAUGAGGAUCACCCAUGUAAUCAU [Brourdmod04] | 317
UCGCCCGGGUCGGCCGCCACUGCGGUGAUGUGACAUGAGGAUCACCCAUGUUGUCAUGUGGCACAUAGGACCGGGACCCGGGCGA [Exclusion - Tryptophan B Attempt #4 (HarryS)] | 40.3
CUUGUGGGCGGAAGGAGCGCGAUUACAUAACAUGAGGAUCACCCAUGUAAGAAAUUAUUCAUGCAGGUAGGUCGCCGUUCGUGGG [Same State Arginine B GF9] | 24.1
GACAUGAGGAUCACCCAUGUUGACUAUGAAGGAGCGUCGGAAAUGACAGGUAGGUCGCAUAGUCGACCUUGUAUUUUGUGUGUUU [EAA #9] | 12.5
CUUGUGCUGACGGCCGCCACUUUAUGGGAGUCCUGUUCUGAUUGAUACAUGAGGAUCACCCAUGUAAGGACCGGGUCGUACCAUA [theeternabot_exclusion_MS2_Trp_B_22] | 22.7
UUCAGCUAGUCGGCCGCCACUACUUGAGGAUCACCCAAGUAAUCCUAACACUGCUUCGGCAGUGGUAGGACCGGGACUAGCUGAG | 11.5
UUAAUCAUGGAUGAAAACAUUUAUGCAGAAGGAGCGUGAUAAAACACAGGUAGGUCGCUGAAGGGAACAUGAGGAUCACCCAUGU [AstrosSSArgA#17] | 69.5
CCUAUGCAGUCGGCCGCCACUGAUAAAAUUAUUUUUACCUCAGAAACAUGAGGAUCACCCAUGUACAGGACCGGGACUGUAUAGG [Ex Tryptophan B 17] | 22.8
GGAGUAGAUGCGGCCGCCACUUUCUCAAGACACUACAUGAGGAUCACCCAUGUCCAUUCUACACUAAGGACCGGGCAUCCCAUGG [Alaa] | 192
UUCUUUAAGUCGGCCGCCACUGAAACAUGAGGAUCACCCAUGUAUAUUUGUGUAAAGGUGGAUUACAGGACCGGGACUAUAGUAA [JR_Nu23_ExcTryptoB_Sub024] | 11.7

same assay, conditions: Eterna round: R107; input ligand: tryptophan 2.4 mM

Sequence | apparent KD of MS2 coat protein [nM]
AAAAGAGGUGGAAGGAGCGGGAGACAUGAGGAUCACCCAUGUGAAGUGACGAAAGGAUCAGCCCAGGUAGGUCGCCAUGUCGAAA [yuiiumullin] | 41.3
CCGGCCGCAUGAAGGAGCGCACAGCGCUCGCACAUGAGGAUCACCCAUGUAAAUGGGUGCGUGCAGGUAGGUCGCAUGCAGGCAA [Lesobete] | 472
AUGGCGUUGGUGUAGCUGUGAAAUGGCGAUACCAGCGUGGAAACACGCCCUUGGCAGCGCCAAAACAUGAGGAUCACCCAUGUUA [Hradec] | 18.1
AUAUUAAAGAGUGAUACCAGACUACAUGAGGAUCACCCAUGUUACAUUUAAAUAUCAUUUGUCCCUUGGCAGCACAUUAAGUACA [JR_Nu_ExcTheophyB_Sub022] | 17.5
GGAUUACGAAAGUAGUCCUCAAGUUCGAGACGAGGACCGGUACGGCCGCCACUCGAACAUGAGGAUCACCCAUGUAGCGAAAGCU [Tryptophan A 22] | 181
AUCAUGUAAUCAGAUACCAGACAUCUUUUAAUACAUAUUACAUGAGGAUCACCCAUGUUGGUCCCUUGGCAGCUGAAAUAUUUUU [JR_Nu_SSTheophyB_Sub027] | 246
ACAUGAGGAUCACCCAUGUAAUUGCCGGAAGGAGCGUCAUUAAGGACAGGUAGGUCGCUGGUAGGGUCGUCGGUUACGGCGGCCA [SSArg A #10] | 13.7
GGGUACAUCGCGGCCGCCACUCAUGUAAAUGCAUGAGGAUCACCCAUGUCGAUGGAGACAUCGGAGAGGACCGGGUGAUGUACCG | 193
UGUUAUUUCCGAAGGAGCGGGAUACAUGAGGAUCACCCAUGUACAUGAGGAUCAACAUGAACCCAGGUAGGUCGCGGAUUUUGUC [Exclusion Arginine B 3] | 228
CGCCACAUGAGGAUCACCCAUGUAAUGGCGCGAGGACCGGUACGGCCGCCACUCGCCUGGCAGUGAGCGCAUGCGGCCUGGGUAU [Exclusion Tryp A GF9] | 13.3
ACAUGAGGAUCACCCAUGUAGCCUAGGGAAGGAGCGUCGUAAGAGACAGGUAGGUCGCCCGCAUGUGGAUCACCCAUGUCGAGGG [SSArg A #11] | 38.7
UGACAUGAGGAUCACCCAUGUUUAGAUGAACGAGGACCGGUACGGCCGCCACUCGAUAAGUGGAAAGAGCGAGGGAUCGCAUGCU [Same State Trp A GF5] | 14.4
UCGCUCUGGGUGAAUCCCAGAGAUGUGGAAGGAGCGGACGAAAGUCCAGGUAGGUCGCCAUCGAACAUGAGGAUCACCCAUGUAC [Same State - Arginine A (Freestyle 26)] | 46.2
ACUAGUUGUGCAGAUACCAGACAUGAGGAUCACCCAUGUUUGGGAUCUAAUGAUCAUCUUGUCCCUUGGCAGCUGUACAUCUAGA [Omei Theo B Exc v1] | 55.5
CUUGUGGGCGGAAGGAGCGCGAUUACAUAACAUGAGGAUCACCCAUGUAAGAAAUUAUUCAUGCAGGUAGGUCGCCGUUCGUGGG [Same State Arginine B GF9] | 25.2
CGGUUUGUGAUGGAUACCAGCAGAGAAAAUGUUUAUCCUGACAUGAGGAUCACCCAUGUGUGCCCUUGGCAGCUGUUGUGGGCUG [8.X] | 51.1
CGUAAACAUGAGGAUCACCCAUGUGAUGAUACCAGCACGAUUAACUGCCCUUGGCAGCAUGUAUUGUACGACUUAUUGCCCAUCG [theeternabot_sameState_MS2_Theo_A_15] | 13.5
GACAUGAGGAUCACCCAUGUUGACUAUGAAGGAGCGUCGGAAAUGACAGGUAGGUCGCAUAGUCGACCUUGUAUUUUGUGUGUUU [EAA #9] | 11.6
UGCAUCAUAAUCAUGUUGGUGCUAGGUGAUACCAGCAUCGAAAGAUGCCCUUGGCAGCACCAACAUGAGGAUCACCCAUGUAAUA [(MT)''-(M)'-(T')-(Theo)-(Ms2)_Design1/22_2] | 27
UUCAGCUAGUCGGCCGCCACUACUUGAGGAUCACCCAAGUAAUCCUAACACUGCUUCGGCAGUGGUAGGACCGGGACUAGCUGAG | 15.1
UUAAUCAUGGAUGAAAACAUUUAUGCAGAAGGAGCGUGAUAAAACACAGGUAGGUCGCUGAAGGGAACAUGAGGAUCACCCAUGU [AstrosSSArgA#17] | 41.3
AGGCAGUAGGUGAUCCACUGCCAAGGUGAUACCAGCAUCGAAAGAUGCCCUUGGCAGCACCAACAUGAGGAUCACCCAUGUAAUA [(MT)''-(M)'-(T')-(Theo)-(Ms2)_Design1/22_9] | 99.2
CUCGAGUUAUGAGAUACCAGACUAUAGUUUACAUGAGGAUCACCCAUGUUAUGGGUGGUAGUCCCUUGGCAGCUCAUAUGUUUAA [#06 Exclusion-TheophyllineB] | 305
